Experiment: yeast display, Sf9 membrane polyspecificity reagent, FACS + sequencing; frameworks hold sequencing errors
In short: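 After 36–48 hours of galactose induction, yeast (Saccharomyces cerevisiae BJ5465) displaying a synthetic nanobody library were stained at 4 °C for 1 hour with 10% biotinylated, detergent-solubilized Sf9 membrane reagent. Streptavidin microbeads enriched the stained cells before FACS sorting into low and high (top ~1%) gates on anti-HA and streptavidin fluorescence. Each clone's polyreactivity label reflects its gate of origin.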
In the case of “QVQLVESGGGLVQAGGSLRLSCAASGYIFGWYAMGWYRQAPGKERELVATIDWSGDSTYYADSVKGRFTISRDNAKNTVYLQMNSLKPEDTAVYYCSAGVGYITYYGYDYWGQGTQVTVSS”, the “polyreactivity (PSR sort gate)” value is reported as “low polyreactivity”.
With “QVQLVESGGGLVQAGGSLRLSCAASGITFNEYAMGWYIQAPGKERELVAAISRRGGSTYYADSVKGRFTISRDNAKNTVYLQMNSLKPEDTAVYYCAAYYPSHEYSGFWSDTYEYWGQGTQVTVSS” the “polyreactivity (PSR sort gate)” value was “low polyreactivity”.
For “QVQLVESGGGLVQAGGSLRLSCAASGYTFGFYGMGWYRQAPGKERDLVAAISRSGGGSTYYADSVKGRFTISRDNAKNTVYLQMNSLKPEDTAVYYCNRDFDDEMWGQGTQVTVSS”, the “polyreactivity (PSR sort gate)” value was “low polyreactivity”.
With “QVQLVESGGGLVQAGGSLLLSCAASGFTFSGYVMGWYRQAPGKERELVAAISNSGGRTYADSVKGRFTISRDNAKNTVYLQMNSLKPEDTAVYYCAKKPGGFSQASRVDYDYWGQGTQVTVSS” the “polyreactivity (PSR sort gate)” value was “low polyreactivity”.
With “QVQRVESGGGLVQAGGSLRLSGAASGFTFHSYAMGWFRQPPGKERELVAAISTGGTRTYYADSVKGRFTISRDNAKNTVYLQMNSLKPEDTAVYYCAADLSRRVRIYSKYDSWGQGTQVTVSS” the “polyreactivity (PSR sort gate)” value was “high polyreactivity”.
In the case of “QVQLVESGGGLVQAGGSLRLSCAASGRTFSVYAMVWYRQAPGKERELVADITRRGGSTTYADSVKGRFTISRDNAKNTVDLQMNSLKPEDTAVYYFNADGKAGGDYDYWGQGTQVTVSS”, the “polyreactivity (PSR sort gate)” value is reported as “low polyreactivity”.
In the case of “QVQLVESAGGLVQAGGSLRLSCAASGRTGVNAMGWYRQAPGKERGLVAAINTSVGRTYYADSVKGRFTISRDNAKNTVYLQMNSLKPEDTAVYYCNTDRLGAARYDYWGQGTQVTVSS”, the “polyreactivity (PSR sort gate)” value is reported as “low polyreactivity”.
For “QVQLVESGGGLVQAGGSLRLSCAASGSTFPKYAMGWYRQAPGKERELVASISVTTGSTYYADSVKGRFTISRDNAKNTVYLQMNSLKPEDTAVYYCAVGRTVAHRFIAGDYWGQGTQVTVSS”, the “polyreactivity (PSR sort gate)” value was “high polyreactivity”.
With “QVQLVESGGGLVQAGGSLRLSCAEYDMGWYRQAPGKERELVATITARGGSTYADSVKGRFTISRDNAKNTVYLQMNSLKPEDTAVYYCAADRFFWLRSYPRYYYWGQGTQVTVSS” the “polyreactivity (PSR sort gate)” value was “low polyreactivity”.
In the case of “QVQLVESGGGLVQAGGSLRLSCAASGSIIATNAMGWYRQAPGKERELVAAISRSAGRTYYADSVKGRFTISRDNAKNTVYLQMNRLKPDDTAVYYCNAVFPGVTNQMDYWGQGTQVTVSS”, the “polyreactivity (PSR sort gate)” value is reported as “high polyreactivity”.
For “QVQLVESGGGLVQAGGSLRLSCAASGFIFSTNFMGWYRQAPGKERELVADINTGGSTSYADSVKGRFTISRDNAKNTVYLQMNSLKPEDTAVYYCAAVLQYYYLSTDDPYDYWGQGTQVTVSS”, the “polyreactivity (PSR sort gate)” value was “low polyreactivity”.
With “QVQLVESGRGLVQAGGSLRLSCAASGSTFDGYAMGWYRQAPGKVRELVAAINWGGGSTRYADSVKGRFTISRDHAKNTVYLQMNSLKPEDTPVYYCAAYRYRVWYRGYDYWGQGTQVTVSS” the “polyreactivity (PSR sort gate)” value was “high polyreactivity”.
With “QVQLQESGGGLVQEGGSLRLSCAASGNISPPADMGWYRQAPGKERELVASIGTGGTTNYADSVKGRCTISRDNAKNTVYLQMNSLKPDDTAVYYCAAVRYEYNPYDYWGQGTQVTVSS” the “polyreactivity (PSR sort gate)” value was “low polyreactivity”.
In the case of “QLQLVETGGGLVQAGGSLRLSCAASGYIFVYNDMGWSRQAPGKERELVAAITFSGGITYYADSVKGRFTISRDNAKNTVYLQMNSLKPEDTAVYYCAAADYWFYYGYYLTMDYWGQGTQVTVSS”, the “polyreactivity (PSR sort gate)” value is reported as “low polyreactivity”.
With “QVQLVESGGGLVQAGGSLRLICAASGYIFPYYAIGWYRQAPGKERELVAGITTDGSSTYYADSVKGRFTISRDNAKNTVYLQMPSLKPEDTAVYYCYGYPGYTWGWYDYWGQGTQVTVSS” the “polyreactivity (PSR sort gate)” value was “low polyreactivity”.
For “QVQLVESGGGLVQAGGSLRLSCAASGITFVRYAMGWYRQAPGKERELVATINWSGGSTYYADSVKGRFTISRDNAKNTVYLQMNSLKPEDTAVYYCAAYYVHPVYDVGHYDYWGQGTQVTVSS”, the “polyreactivity (PSR sort gate)” value was “low polyreactivity”.
With “QVQHVESGGGLDQAARSLRLICAASGSIFTDNGMGWYRQAPGKERELVAAISWRGGTYYADSVKGRFTISRDNAKNSVYLQMNSLKPEDTAVYYCNADPEAEGNFEYYYWGQGTQVTVSS” the “polyreactivity (PSR sort gate)” value was “low polyreactivity”.
With “QVQLVESGGGLVQAGGSLRLSCAASGSTLKYNALGWYRQAPGKERELVAAISTSGGNTYYADSVKGRFTISRDYAKNTVYLQMNTLKPEDTAVYYCAKVLGFYYYDYYTPFARGYWGQGTQVTVSS” the “polyreactivity (PSR sort gate)” value was “low polyreactivity”.
With “QVQLVESGGGLVQAGGSLRLSCAASGSTFPLYAMGRYRQAPGKERELVAAITSGGGNTYYADSLKGRFTISRDNAKNTVYLQMNSLKPEDTAVYYCAAVGGYKSYYSYEYDYWGQGTQVTVSS” the “polyreactivity (PSR sort gate)” value was “low polyreactivity”.
For “QDQLVESGGGLVQAGGSLRLSCAASGRTFYYAMGWYRQAPGKERYADSVKGRFTISRDNAKNTVYLQMNSLKPEDTAVYYCAAKVPEPPSLDESDYWGQGTQVTVSS”, the “polyreactivity (PSR sort gate)” value was “low polyreactivity”.
For “QVQLQESSGGLVQAGGTLRMSCAASGTIFHFHIMGWYRQAPGKEREFVAAISYGTSTYYADSVKCRFTISRDNAKNTVFLQMNSQNPEDNEVYYCAVYDYLEVYCWYWGQGTQVTVSS”, the “polyreactivity (PSR sort gate)” value was “low polyreactivity”.
In the case of “QVQLVESGGGLVQAGGSLRLSCAASGRIFGYYTMGWYRQAPGKERELVADSSGGNTSYADSVKGRFTISRDNAKNTVYLQMNSLKPEDTAVYYCAKDLPGAWRGDDYWGQGTQVTVSS”, the “polyreactivity (PSR sort gate)” value is reported as “low polyreactivity”.
With “QVQLVESGGGLVQAGGSLRLSCAASGSIFYYNAMGWYRQAPGKERELVATIRTSGGSTYYADSVKGRFTISRDNAKNTVYLQMNSLKPEDTAVYYCAARDLRKLYSRYPYYYWGQGTQVTVSS” the “polyreactivity (PSR sort gate)” value was “high polyreactivity”.
In the case of “QVQLVESGGGLVQAGGSLRLSCDASGITLRTYSIGWYRQAPGKERELVAAISKSGDRTYYADSVKGRFTISRDNAKNTVYLQMNSLKPEDNAVYYCAKATNAQYLYDYWGQGTHVTVSS”, the “polyreactivity (PSR sort gate)” value is reported as “low polyreactivity”.
With “QVQLVESGGGLVQAGGSLRLSCAASGFIFRYYTMGWYRQAPGKERELVAVITSGGTTYYADSVKGRFTISRDNAKNTVYLQMNSLKPEDTAVYYCAADTFYIYEDVLYVQGDYYWGQGTQVTVSS” the “polyreactivity (PSR sort gate)” value was “low polyreactivity”.
In the case of “QVQLVESGGGIVQAGGSLRLSCAASGRTFDSYAMGWYRQAPGKERELVAAITYSGGSTYYADSVKGRFTISRDNAKNTVYLQMNSLKPEDTAVYYCARDRFYYRLAGSKGRRKGDYWGQGTQVTVSS”, the “polyreactivity (PSR sort gate)” value is reported as “high polyreactivity”.
For “QVQLVESGGGLVQAGGSLRLSCAASGSTFFLYAMGWYRQAPGKERELVAAITYTDGDTYYADSVKGRFTISRDIAKKTVYLQMNSLKPEDTAVYYCAADSWVQFDYWGQGTQVSVSS”, the “polyreactivity (PSR sort gate)” value was “low polyreactivity”.
With “QVQLVESGGGLVQAGGCLRLSCAASGLIFIKYTMGWYRQAPGKERELVAVISGSGGSTYYADSVKGRFTISRDNAKNTVYLQMNSLKPEDTAVYYCAARSYALGYGGGYWGQGTQVTVSS” the “polyreactivity (PSR sort gate)” value was “high polyreactivity”.
For “QVQLVESGGGLVQAGGSLRLSCAASGSTFGNYAMGWYRQAPGKERELVAAISTSGGSTYYADSVKRRFTISRDNAKNTVYLQMNSLKPEDTAVYYCAKRLVRVRSRAVSDYYWGQGTQVTVSS”, the “polyreactivity (PSR sort gate)” value was “high polyreactivity”.
For “QVQLVESGGGLVQAGGSLRLSCAASGRILDYNAMGWYRQAPGKERELVAAITYTGGDTYYADSVKGRFTISRDNAKNTVYLQMNSLKPEDTAVYYCSADFGPYYRFDYWGQGTQVTVSS”, the “polyreactivity (PSR sort gate)” value was “low polyreactivity”.
With “QVQLVDSGGGLVQAGGSLRLSCAASGSIFYVNAMGWYRQAPGKERELVASITQSGGSTYYADSVKRRFTISRDNAKNTVDLQMNILKPEDTSVYYCNADIHVYPTRTRYYYWGQGTQVTVSS” the “polyreactivity (PSR sort gate)” value was “low polyreactivity”.
In the case of “QVQLVGSGGGLVQAGGSLRLSCAASGRIFSSSAMGWYRQAPGKERELVASIDWSDGSTYYADSVKGRFTISRDNAKNTVYLQRNSLKPEDTAVYYCAADFVPYLIYGYWGQGTQVTVSS”, the “polyreactivity (PSR sort gate)” value is reported as “low polyreactivity”.
In the case of “QVQLVESGGGLVQAGGSLRLSCAASGSTFWSNAMGWYRHAPGKERELVAVISRRCVRKYYADSVKGRFTISRDNAKNNVYLQMNSLKPEDTAVFYCNAEVYGELDYWGQGTQVNVSS”, the “polyreactivity (PSR sort gate)” value is reported as “low polyreactivity”.
In the case of “QVQLVESGGGLVQAGGILRLSCAASGSTFPFYAMGWYRQAPGKVRELVASINSDGSTNYADSVKGRFTISRDNAKNTVYLQMNSLKPEDTAVYYCAAGWQTRFYSRYYYWGQGTQVTVSS”, the “polyreactivity (PSR sort gate)” value is reported as “high polyreactivity”.
For “QVQLVESGGGLVQAGGSHRLSCAASGRIFSDYAMGWYRQAPGKERELVAAITRDGSTNYADSVKGLFTISRDNAKNTVYLQLNSLKPEDTAVYYCAAEGRRGGKDYDYWGQGTQVTVSS”, the “polyreactivity (PSR sort gate)” value was “high polyreactivity”.
With “QVQLVESGGGLVQAGGSLRLSCAASGRTFAKYAMGWYRQAPGKERELVAAITRGDTTNYADSVKGRFTISRDNAKNTVYLQMNSLKPEDTGVYYCAATPDPPHTYEYWGQGTQVTVSS” the “polyreactivity (PSR sort gate)” value was “low polyreactivity”.
In the case of “QVQLVESGGGLVQAGGSLRLTFAASGRTFGYYAMGWSRQAPGKEREWVAAISWSGTSTYYADSVKGRFTISRDNAKNTVYLQLNSLKPEDTAVYYCNAVNVAVQWTSRYYYWGHGTQVTVSS”, the “polyreactivity (PSR sort gate)” value is reported as “high polyreactivity”.
For “QVQLVESVGGLVQAGGSLRLSCGASGSIFVANAMGWYIQAPGKEREFVAAITGSGGSTYYADSVKGRFTISRDNAKNTVYLQMNSLKPEDTAVYYCTGDYTVKFGYWGQGTQVTVSS”, the “polyreactivity (PSR sort gate)” value was “low polyreactivity”.
In the case of “QVQLVESGGGLVQAGGSLSLSCAASGSTFDYYAMGWYRQAPGKEWELVADITYSGGSTYYADSVKGRFTISRDNAKNTVYLQMNSLKPEDTAVYYCNAYYTVYTRYDYWGQGTQVTVSS”, the “polyreactivity (PSR sort gate)” value is reported as “high polyreactivity”.
With “QVQRVESGGGLVQAGGSLRLSCAASGRIFQVYAMGWSRPAPGKERELVAAITWSGGSSYADSVKGRFTISRDNAKNTVFLQMNSLKPEDTAVYYCAAPFYYYGVRFDYRGQGTQVTVSS” the “polyreactivity (PSR sort gate)” value was “high polyreactivity”.
With “QVQLVESGGGLVQAGGSLRLSCAASGSTFVLNAMGWDRQAPGKERELVAAITRDGRTYYADSVKGRFTISRDNAKNTVYLQMNSLKPEDTAVYYCARPARYSYGDGYWGQGTQVTVSS” the “polyreactivity (PSR sort gate)” value was “low polyreactivity”.
With “QVQHVESGGGLVQAGGSLRLSCAASGFTFYIYVMGWYRQAPGKERELVAAITWSGGRTYYADSVKGRFTISRDNAKNTVYLQMNSLKPEDTAVYYCAASYPGLSYHKYEYWGQGTQVTVSS” the “polyreactivity (PSR sort gate)” value was “high polyreactivity”.
With “QVQLVESGGGLVQAGGSLRLSCAASGSIFSHNAMGWYRQAPGKERELVAAISWSAASTYYADSVKGRFTISRDNAKNTVYLQMNSLKPEDTAVYYCAAVPYSSTYRYDYWGQGTQVTVSS” the “polyreactivity (PSR sort gate)” value was “low polyreactivity”.

Reference: the nanobody polyreactivity screen of Harvey et al. (2022)
